Measured values from patent US20250027068.
Substitutions are numbered along the chain they refer to.

B1: PRT-337 (protein)
chain: MTITSVWTKGVTPPTPEDFRKNNEDVLHAPYLANQGWYDITKAFDGKDNLLCGAATAGNMLHWWFDQNKEEIERYLKKHPEKQKIIFNNQELFDVKAAIDTKDSQTNSKLFNYFRDKAFPNLSARQLGVMPDLVLDMFINGYYLNLGKTQSTDVNRPYQDKDKRGGIFDAVFTRGDQTTLLTARHDLKNKGLNEISDLIKQELTEGKALALSHTYANVSINHVINLWGADFDAEGNLEAIYVTDSDANASIGMKKYFVGRNAHGKVAISAKKIEGDNIGAQVLGLFTLSTGQDIWQKLS
B2: PRT-340 (protein)
chain: B1 chain with K21E, N112D, I294Q
B3: PRT-345 (protein)
chain: B1 chain with K21E, N112D, N236E, A249P
B4: PRT-339 (protein)
chain: B1 chain with K21E, N88G, N112D, I294Q
B5: PRT-338 (protein)
chain: B1 chain with K21E, T290L
B6: PRT-368 (protein)
chain: MSQTEDSESLQRLRDIEDFQAEKKDQNVVYTKWLDGVDVKDHDFRKIVDGNIAYYATPLLNGRGWYDINKDFNRDNDKCAAAVAANMFHYWLDRNRDNVDRFLRQNPEKHGIIELPDGQLKLSDFLNTYESDDGYRDKSKLFDFISENFNGPVWTDKLLDNYINGYAYNYKYGRTIEDSTKNTSKINFFKEVFNEKILTNNHSIRNQNEFSVLLIEALYTGKAIGLSYGPAGLRHSLGHIISVWGADLDADGNVVAIYVTDSDDKKLTIGDERVGLKRYKISTDDEGRLRLTAYEETHNTGGQVRGLWTLDTGKQAWADYFDKTEQTGTDQAEQ
B7: PRT-370 (protein)
chain: B6 chain with I52S
B8: PRT-369 (protein)
chain: B6 chain with W65L, F210L, I215S
B9: PRT-352 (protein)
chain: MSQTEDSESLQRLRDIEDFQAEKKMQNVVYTKWLDGVDVKDHDFRKIVDGNSAYYATPLLNGRGFYDINKDFNRDSDKCAAAVAANMFHYWLDINRDNVDRFLRQNPEKHGIIELPDGQLKLSDFLNTYESDHGYRDKSKLFDFISENFNGPVWTDKLLDNYINGYAYNSKYGRTIEDPTKNTSKINFFKEVFNEKILTNNHSIRNQNEFSVLLIEALYTGKAIGLSYGPAGLRHGLGHIISVWGADLDADGNVVAIYVTDSDDKKLTIGDERVGLKRYKISTDDENRLRLTAYEETHNTGGQIRGLWTLDTGKYAWADYFDKTEQTGTDQAEQ
B10: PRT-360 (protein)
chain: B6 chain with I52S, N76S, S179P
B11: PRT-346 (protein)
chain: B9 chain with K24E, E147N, S170Y, I215S, G236S, I304V
B12: PRT-353 (protein)
chain: B9 chain with K24E, F65W, I304V
B13: PRT-361 (protein)
chain: B6 chain with D25K, I52S, W65F, N76S, S179P, V304I
B14: PRT-362 (protein)
chain: B9 chain with M25K, I94R, H133D, N287G, Y315Q
B15: PRT-354 (protein)
chain: B9 chain with S52E, S170Y, F210L, I215S, G236S
B16: PRT-347 (protein)
chain: B9 chain with K24E, F65W, E147N, S170Y, I215S, G236S, I304V
B17: PRT-371 (protein)
chain: B6 chain with D25K, I52S, W65F, V304I
B18: PRT-355 (protein)
chain: B9 chain with S52E, S170Y, T175L, F210L, I215S, L233T, G236S
B19: PRT-363 (protein)
chain: B6 chain with K24E, D25K, I52S, N76S, Y170S, S179P, S236G

Target: pooled human IgG (human IgG1,2,3 and 4)

Protein	Enzyme Activity Endpoint Assay (purified): Fab′2 [ng/µL]	Enzyme Activity Endpoint Assay (purified): Fc [ng/µL]	Enzyme Activity Endpoint Assay (purified): IgG [ng/µL]	Enzyme Activity Endpoint Assay (purified): scIgG [ng/µL]
B1	0	74	38	259
B2	692	374	0	307
B3	61	248	123	772
B4	721	167	0	288
B5	766	203	0	287
B6	0	3	0	0
B7	654	348	0	288
B8	259	284	123	445
B9	229	302	281	599
B10	89	241	191	684
B11	607	217	0	246
B12	101	259	189	767
B13	86	243	130	753
B14	720	225	0	299
B15	618	213	0	233
B16	769	397	0	309
B17	623	373	0	295
B18	952	500	0	367
B19	838	462	0	354
